Measurements: patent US20060134638, “Error reduction in automated gene synthesis” (Blue Heron Biotechnology, Inc., published 2006)

T1: MutS (TaqMutS) (Thermus aquaticus, UniProt Q56215 Q56215:1-811)
T1 sequence: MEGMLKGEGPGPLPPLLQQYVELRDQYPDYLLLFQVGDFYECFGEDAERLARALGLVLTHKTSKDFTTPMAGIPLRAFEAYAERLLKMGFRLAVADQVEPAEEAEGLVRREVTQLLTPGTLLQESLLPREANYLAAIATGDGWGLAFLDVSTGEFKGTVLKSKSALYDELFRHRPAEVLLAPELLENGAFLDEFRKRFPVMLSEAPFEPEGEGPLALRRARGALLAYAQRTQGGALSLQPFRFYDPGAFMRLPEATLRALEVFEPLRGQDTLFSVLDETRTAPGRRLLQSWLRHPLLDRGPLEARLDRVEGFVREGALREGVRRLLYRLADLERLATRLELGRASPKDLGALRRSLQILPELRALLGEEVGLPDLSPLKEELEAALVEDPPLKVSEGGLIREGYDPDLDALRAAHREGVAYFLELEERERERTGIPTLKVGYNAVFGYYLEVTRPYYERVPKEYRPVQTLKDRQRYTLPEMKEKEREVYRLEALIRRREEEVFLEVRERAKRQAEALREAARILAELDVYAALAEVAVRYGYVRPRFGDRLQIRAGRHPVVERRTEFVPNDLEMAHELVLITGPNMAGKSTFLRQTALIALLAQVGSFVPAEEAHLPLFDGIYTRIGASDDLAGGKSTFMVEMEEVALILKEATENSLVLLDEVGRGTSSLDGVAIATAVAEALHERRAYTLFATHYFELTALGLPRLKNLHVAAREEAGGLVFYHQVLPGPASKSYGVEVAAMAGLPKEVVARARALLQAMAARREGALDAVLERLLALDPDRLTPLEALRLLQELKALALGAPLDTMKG

B1: 410 bp AflIII/EcoRI homoduplex (pUC121) (dsDNA)
DNA 1: GAAGAGCGCCC
DNA 2: GGGCGCTCTTC

Experiments:
MutS (TaqMutS) [1] = biological target: T1, MutS (TaqMutS); details: error frequency 1/212 to 1/1593; 500 nM MutS, 40 nM DNA, 60 C
MutS (TaqMutS) [2] = biological target: T1, MutS (TaqMutS); assay: homoduplex recovered in flow-through; white:blue ratio shifted 1:1 to 60:1; details: chain copies: 2; perfect duplex
Description: The 410 bp white:blue test heteroduplex was used to determine the best conditions for separation of a model A or T deletion heteroduplex from perfectly matched homoduplex molecules using TaqMutS. A defined ratio of heteroduplex and homoduplex 410 bp fragments were incubated with TaqMutS at 60° C. for 20 minutes and subsequently passed through enzyme removal columns (Micropure-EZ enzyme removers from Millipore). These columns are marketed as quick alternatives to phenol/chloroform methods for removing proteins from DNA. The aim was to retain the TaqMutS protein bound to heteroduplex DNA in the column and retrieve the homoduplex DNA in the flow-through.

| Molecule | activity (% errors removed) (MutS (TaqMutS) [1]) | binding result (MutS (TaqMutS) [2]) |
| --- | --- | --- |
| 354 bp synthetic DNA, error-containing population | > 85 | – |
| B1 | – | no binding |
